Measured values published in article doi:10.1101/2020.08.31.274639.

Biological target: SARS-CoV-2 main protease 3CLpro (SARS-CoV-2)
Assay: crystal structure

SARS-CoV-2 main protease 3CLpro (enzyme)
stoichiometry N: 2
